The assay deals with recombinant human PGRN (human) (UniProt P28799).
Chain of UniProt P28799 (P28799 18-593): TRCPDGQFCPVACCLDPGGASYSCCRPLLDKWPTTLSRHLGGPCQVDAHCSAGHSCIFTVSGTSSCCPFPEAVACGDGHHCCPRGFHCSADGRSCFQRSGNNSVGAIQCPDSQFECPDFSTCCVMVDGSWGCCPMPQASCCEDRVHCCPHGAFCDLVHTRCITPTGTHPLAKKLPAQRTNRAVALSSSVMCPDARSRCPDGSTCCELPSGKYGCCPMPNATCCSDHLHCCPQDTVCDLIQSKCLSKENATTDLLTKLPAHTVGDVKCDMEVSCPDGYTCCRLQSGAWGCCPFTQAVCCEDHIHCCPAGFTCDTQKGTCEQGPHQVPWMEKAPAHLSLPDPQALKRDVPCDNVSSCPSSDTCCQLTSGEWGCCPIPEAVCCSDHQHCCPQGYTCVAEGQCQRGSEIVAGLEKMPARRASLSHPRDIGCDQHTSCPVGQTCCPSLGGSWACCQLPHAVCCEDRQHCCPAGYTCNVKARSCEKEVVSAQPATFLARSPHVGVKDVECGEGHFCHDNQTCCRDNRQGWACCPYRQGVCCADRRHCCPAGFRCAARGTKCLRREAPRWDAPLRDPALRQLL

As for “recombinant human Flag-YB-1 (from UniProt P67809 1-324) (natural protein)”, the inhibition of TNF-induced NF-κB luciferase reporter activity in transfected human embryonic kidney cells by combined stimulation with YB-1 and PGRN is 65%.

For the origin of these results see paper PMC7583764.
